The source of these data is patent US20240409663A1 (CONCEPT TO MEDICINE BIOTECH, published 2024).

The target of experiment [1] is T1, human GPC3 on cells (human, UniProt P51654 25-554). Kind of experiment: FACS, GPC3-CHOK1 cells.
The target in experiment [2] is T1, human GPC3 on cells. The experiment is described as follows: FACS, GPC3-CHOK1 cells. The source holds these as a separate data set.
For experiment [3], the target named is T1, human GPC3 on cells. The experiment is described as follows: FACS, HEPG2 cells.
In experiment [4] the target is T1, human GPC3 on cells. The experiment is described as follows: FACS, HEPG2 cells. The source holds these as a separate data set.
Experiment [5] concerns the target T1, human GPC3 on cells. Kind of experiment: cell-based or functional assay.
Experiment [6] addresses T1, human GPC3 on cells. The experiment is described as follows: FACS, GPC3-CHOK1 cells. The source holds these as a separate data set.
Experiment [7] has as its target T1, human GPC3 on cells. Kind of experiment: FACS, GPC3-CHOK1 cells. The source holds these as a separate data set.
In experiment [8] the target is T1, human GPC3 on cells. Kind of experiment: FACS, GPC3-CHOK1 cells. This is another data set of the same source.
The target in experiment [9] is T1, human GPC3 on cells. The experiment is described as follows: FACS, GPC3-CHOK1 cells. This is another data set of the same source.
Experiment [10] has as its target T1, human GPC3 on cells. The experiment is described as follows: FACS, HEPG2 cells. This is another data set of the same source.
Experiment [11] has as its target T1, human GPC3 on cells. The experiment is described as follows: FACS, Huh-7 cells.
Experiment [12] has as its target T1, human GPC3 on cells. Kind of experiment: FACS, Huh-7 cells. The source holds these as a separate data set.
Experiment [13] concerns the target T1, human GPC3 on cells. The experiment is described as follows: FACS, Hep3B cells.
The target in experiment [14] is T1, human GPC3 on cells. Kind of experiment: FACS, Huh-7 cells. This is another data set of the same source.
Experiment [15] addresses T1, human GPC3 on cells. Kind of experiment: FACS on GPC3-CHOK1 cells, Alexa Fluor 647 anti-human IgG, AF647-MFI.
The target in experiment [16] is T1, human GPC3 on cells. The experiment is described as follows: FACS, Hep3B cells. The source holds these as a separate data set.

With GC33 (Chugai Pharmaceutical) (antibody), the EC50 in [1] worked out at 0.131 mg/L; in experiment [2], 0.122 mg/L; in experiment [3], 0.181 mg/L; in experiment [4] it was 0.745 nM; in [6] it was 0.784 nM; in [7] it was 0.166 mg/L. Moreover, the EC50 came to 0.993 nM in experiment [8]; 0.956 nM in [9]; 1.28 nM in [10]; 0.147 mg/L in [11]; 0.953 nM in experiment [12]; 0.341 mg/L in experiment [13]. Besides, the EC50 stood at 0.182 mg/L in experiment [14] and 0.375 mg/L in experiment [16]. In [5], this substance displayed an EC50 of ADCC cytotoxicity (primary NK cells, LDH), HEPG2 cells of 0.276 nM. The same substance gave an EC50 of ADCC cytotoxicity (primary NK cells, LDH), Huh-7 cells in experiment [5] of 0.172 nM. The substance further returned an EC50 of ADCC signaling (Jurkat-hCD16a-NFAT luciferase reporter), HEPG2 cells in experiment [5] of 0.415 nM. In [5], the EC50 of ADCC signaling (Jurkat-hCD16a-NFAT luciferase reporter), Huh-7 cells is 0.29 nM. The same substance returned an EC50 (read off the curve) in experiment [15] of 0.1 mg/L.
